For the experiment, the target named is binding site for alpha-melanocyte stimulating hormone on mouse melanoma cells (mouse). As to the kind of experiment: binding assay using mouse melanoma cells (Bagutti 1992); ratio against full-length natural alpha-MSH.

“control monooxime of the alpha-MSH analog Nle-Asp-His-(D)Phe-Arg-Trp-Lys-amide (aminooxyacetyl peptide oximated with acetaldehyde)”: the relative binding (Kd of full-length natural hormone divided by Kd of the oxime analog) turned out to be 0.82.
For “dioxime formed between the aminooxyacetyl peptide (AOA-Nle-Asp-His-(D)Phe-Arg-Trp-Lys-amide) and glyoxal (O=CH-CH=O)” the value was 3.33.

The record behind these values is patent US20050025740A1.
